Residue numbers refer to the chain shown, from its start. In names and notes the source's numbering stands.
T1: rHuman Erythropoietin R/Fc Chimera, CF (R&D Systems Cat#963-ER) (human, UniProt P19235 25-250)
T1 construct: Bought recombinant protein; also called EPO R; EPO R/Fc; Fc part of the bought chimera not given
T1 sequence (looked up): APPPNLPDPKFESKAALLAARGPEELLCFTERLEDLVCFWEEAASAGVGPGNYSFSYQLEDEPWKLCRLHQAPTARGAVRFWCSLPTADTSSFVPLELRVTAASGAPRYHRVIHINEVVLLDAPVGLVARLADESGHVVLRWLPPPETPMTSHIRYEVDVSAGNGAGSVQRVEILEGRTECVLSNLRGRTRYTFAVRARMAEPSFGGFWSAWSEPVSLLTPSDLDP

T2: rHuman Erythropoietin R/Fc Chimera, CF (R&D Systems Cat#963-ER) (human, UniProt P19235 25-250)
T2 construct: Bought recombinant protein; also called EPO R; EPO R/Fc; Fc part of the bought chimera not given
T2 sequence (looked up): T1 sequence (looked up)

B1: Fab VH3-23_IGHD2-21*01>3_IGHJ6*01 H100E/S108P/Y113G/Y111E & V2-13_IGLJ2*01 (Fab, V domains shown)
VH: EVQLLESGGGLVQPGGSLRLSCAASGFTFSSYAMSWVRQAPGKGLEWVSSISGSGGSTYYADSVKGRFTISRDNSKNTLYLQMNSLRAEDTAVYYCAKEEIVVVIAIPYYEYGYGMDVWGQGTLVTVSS
VL: SSELTQDPAVSVALGQTVRITCQGDSLRSYYASWYQQKPGQAPVLVIYGKNNRPSGIPDRFSGSSSGNTASLTITGAQAEDEADYYCNSRDSSGNHLVVFGGGTKLTVL
notes: Fab made in E. coli: VH joined to CH1 (with His and Flag tags, plasmid A) and VL to lambda CL (plasmid E); also called EPG Y111E
B2: Fab VH3-23_IGHD2-21*01>3_IGHJ6*01 H100E/S108P/Y113G/Y111P & V2-13_IGLJ2*01 (Fab, V domains shown)
VH: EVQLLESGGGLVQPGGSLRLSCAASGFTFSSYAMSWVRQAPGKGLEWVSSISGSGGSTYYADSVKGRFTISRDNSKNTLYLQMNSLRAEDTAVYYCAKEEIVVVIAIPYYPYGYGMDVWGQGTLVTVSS
VL: B1 VL
notes: Fab made in E. coli: VH joined to CH1 (with His and Flag tags, plasmid A) and VL to lambda CL (plasmid E); also called EPG Y111P
B3: Fab VH3-23_IGHD2-21*01>3_IGHJ6*01 H100E/S108P/Y113G T58A & V2-13_IGLJ2*01 (Fab, V domains shown)
VH: EVQLLESGGGLVQPGGSLRLSCAASGFTFSSYAMSWVRQAPGKGLEWVSSISGSGGSAYYADSVKGRFTISRDNSKNTLYLQMNSLRAEDTAVYYCAKEEIVVVIAIPYYYYGYGMDVWGQGTLVTVSS
VL: B1 VL
notes: Tested as a Fab made in E. coli; also called EPG T58A
B4: Fab VH3-23_IGHD2-21*01>3_IGHJ6*01 H100E/S108P/Y113G A61T & V2-13_IGLJ2*01 (Fab, V domains shown)
VH: B3 VH with A58T, A61T
VL: B1 VL
notes: Tested as a Fab made in E. coli; also called EPG A61T
B5: Fab VH3-23_IGHD2-21*01>3_IGHJ6*01 H100E/S108P/Y113G D62A & V2-13_IGLJ2*01 (Fab, V domains shown)
VH: B3 VH with A58T, D62A
VL: B1 VL
notes: Tested as a Fab made in E. coli; also called EPG D62A
B6: Fab VH3-23_IGHD2-21*01>3_IGHJ6*01 H100E/S108P/Y113G Y60A & V2-13_IGLJ2*01 (Fab, V domains shown)
VH: B3 VH with A58T, Y60A
VL: B1 VL
notes: Tested as a Fab made in E. coli; also called EPG Y60A

Assays:
[1] = molecular target: T3, Recombinant Human DLL4 (R&D Systems Cat#1506-D4/CF) (human, UniProt Q9NR61 27-524); experiment: ECL (MSD) multispot binding assay, antigen spotted on plate, 20 nM Fab;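 also: purified Fab incubated 1 h at 20 °C on antigen-spotted plate, bound Fab revealed with TAG detection antibody, ECL read, antigen signal divided by same-well blank, ratio ≥4 counted as hit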
T3 construct: Bought recombinant protein; also called delta-like protein 4; rHuman DLL4

[2] = molecular target: T4, rHuman Notch-1/Fc Chimera, CF (R&D Systems Cat#3647-TK) (human, UniProt P46531 19-526); experiment: as above
T4 construct: Bought recombinant protein; Fc part of the bought chimera not given

[3] = molecular target: T5, rHuman IGF-1 sR, (IGF-1 sR), CF (R&D Systems Cat#391-GR) (human, UniProt P08069 31-932); experiment: as above
T5 construct: Bought recombinant soluble receptor; also called insulin-like growth factor-1 soluble receptor

[4] = molecular target: T6, rHuman ErbB2/Fc Chimera, CF (R&D Systems Cat#1129-ER) (human, UniProt P04626 23-652); experiment: as above
T6 construct: Bought recombinant protein; also called human epidermal growth factor 2 receptor; Fc part of the bought chimera not given

[5] = molecular target: T7, rHuman P-Cadherin/Fc Chimera, CF (R&D Systems Cat#861-PC) (human, UniProt P22223 108-654); experiment: as above
T7 construct: Bought recombinant protein; Fc part of the bought chimera not given

[6] = molecular target: T8, rHuman CD44/Fc Chimera, CF (R&D Systems Cat#3660-CD) (human, UniProt P16070 21-220); experiment: as above
T8 construct: Bought recombinant protein; Fc part of the bought chimera not given

[7] = molecular target: T9, rHuman EGF R/Fc Chimera, CF (R&D Systems Cat#344-ER) (human, UniProt P00533 25-645); experiment: as above
T9 construct: Bought recombinant protein; also called epidermal growth factor receptor; Fc part of the bought chimera not given

[8] = molecular target: T10, rHuman HGF R/c-MET/Fc Chimera, CF (R&D Systems Cat#358-MT/CF) (human, UniProt P08581 25-932); experiment: as above
T10 construct: Bought recombinant protein; also called HGF R/Fc; hepatocyte growth factor receptor; Fc part of the bought chimera not given

[9] = molecular target: T1, rHuman Erythropoietin R/Fc Chimera, CF …; experiment: as above
[10] = molecular target: T2, rHuman Erythropoietin R/Fc Chimera, CF …; experiment: ECL multispot (MSD) assay, antigen spotted on plate, 20 nM Fab;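 also: purified Fab bound to plate-spotted antigen for 1 h at 20 °C, labelled detection antibody added, ratio of antigen ECL signal to same-well blank, ratio ≥4 counted as binder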
[11] = molecular target: T11, rHuman CD44/Fc Chimera, CF (R&D Systems Cat#3660-CD) (human, UniProt P16070 21-220); experiment: as above
T11 construct: Bought recombinant protein; Fc part of the bought chimera not given

[12] = molecular target: T12, rHuman P-Cadherin/Fc Chimera, CF (R&D Systems Cat#861-PC) (human, UniProt P22223 108-654); experiment: as above
T12 construct: Bought recombinant protein; Fc part of the bought chimera not given

[13] = molecular target: T13, Recombinant Human DLL4 (R&D Systems Cat#1506-D4/CF) (human, UniProt Q9NR61 27-524); experiment: as above
T13 construct: Bought recombinant protein; also called delta-like protein 4; rHuman DLL4

[14] = molecular target: T14, rHuman EGF R/Fc Chimera, CF (R&D Systems Cat#344-ER) (human, UniProt P00533 25-645); experiment: as above
T14 construct: Bought recombinant protein; also called epidermal growth factor receptor; Fc part of the bought chimera not given

[15] = molecular target: T15, rHuman IGF-1 sR, CF (R&D Systems Cat#391-GR) (human, UniProt P08069 31-932); experiment: as above
T15 construct: Bought soluble receptor; also called insulin-like growth factor-1 soluble receptor

[16] = molecular target: T16, rHuman ErbB2/Fc Chimera, CF (R&D Systems Cat#1129-ER) (human, UniProt P04626 23-652); experiment: as above
T16 construct: Bought recombinant protein; also called human epidermal growth factor 2 receptor; Fc part of the bought chimera not given

[17] = molecular target: T17, rHuman Notch-1/Fc Chimera, CF (R&D Systems Cat#3647-TK) (human, UniProt P46531 19-526); experiment: as above
T17 construct: Bought recombinant protein; Fc part of the bought chimera not given

T10 sequence (P08581 25-932, change not shown): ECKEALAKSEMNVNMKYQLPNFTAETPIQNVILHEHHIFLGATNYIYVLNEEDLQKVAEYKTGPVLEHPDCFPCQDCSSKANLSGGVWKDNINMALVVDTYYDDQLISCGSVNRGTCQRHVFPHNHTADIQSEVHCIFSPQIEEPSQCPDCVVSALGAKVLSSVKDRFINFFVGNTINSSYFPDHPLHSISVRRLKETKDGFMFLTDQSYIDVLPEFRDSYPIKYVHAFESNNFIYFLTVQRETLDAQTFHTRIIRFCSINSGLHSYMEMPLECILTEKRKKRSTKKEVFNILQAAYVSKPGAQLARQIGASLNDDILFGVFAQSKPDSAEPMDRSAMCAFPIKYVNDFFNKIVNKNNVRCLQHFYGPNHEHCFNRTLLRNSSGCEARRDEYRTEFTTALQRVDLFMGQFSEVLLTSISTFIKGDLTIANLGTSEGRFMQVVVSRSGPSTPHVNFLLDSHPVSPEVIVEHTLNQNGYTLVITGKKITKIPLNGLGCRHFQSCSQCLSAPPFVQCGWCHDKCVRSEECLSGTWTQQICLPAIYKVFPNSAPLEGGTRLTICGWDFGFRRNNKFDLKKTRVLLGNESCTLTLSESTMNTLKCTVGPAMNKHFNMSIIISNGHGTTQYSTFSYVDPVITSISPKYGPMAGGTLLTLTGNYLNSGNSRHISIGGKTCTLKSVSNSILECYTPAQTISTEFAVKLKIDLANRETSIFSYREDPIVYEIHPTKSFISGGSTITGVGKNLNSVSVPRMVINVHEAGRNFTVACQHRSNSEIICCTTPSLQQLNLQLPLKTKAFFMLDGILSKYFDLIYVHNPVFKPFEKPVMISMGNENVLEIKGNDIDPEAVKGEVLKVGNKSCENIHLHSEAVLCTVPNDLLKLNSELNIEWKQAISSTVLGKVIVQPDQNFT

Binder	ECL signal/blank ratio [1]	ECL signal/blank ratio [2]	ECL signal/blank ratio [3]	ECL signal/blank ratio [4]	ECL signal/blank ratio [5]	ECL signal/blank ratio [6]	ECL signal/blank ratio [7]	ECL signal/blank ratio [8]	ECL signal/blank ratio [9]	ECL signal/blank ratio (read-out not given) [10]	ECL signal/blank ratio (read-out not given) [11]	ECL signal/blank ratio (read-out not given) [12]	ECL signal/blank ratio (read-out not given) [13]	ECL signal/blank ratio (read-out not given) [14]	ECL signal/blank ratio (read-out not given) [15]	ECL signal/blank ratio (read-out not given) [16]	ECL signal/blank ratio (read-out not given) [17]
B1	1.5	1.5	1.4	1.5	2.3	1.1	1.4	2.2	–	–	–	–	–	–	–	–	–
B2	1.4	1.6	1.2	1.6	1.3	1.3	1.5	1.7	1.9	–	–	–	–	–	–	–	–
B3	–	–	–	–	–	–	–	–	–	158	1.5	36.9	2.3	9.6	1.2	15.9	–
B4	–	–	–	–	–	–	–	–	–	–	2	20.9	2.6	7.1	1.6	11.2	2.9
B5	–	–	–	–	–	–	–	–	–	244	2	45.8	2.4	11.6	1.4	21.7	–
B6	–	–	–	–	–	–	–	–	–	–	1.5	25.3	2.3	6.2	1.2	11.5	2.6

From patent publication US20120316071A1 (published 2012)
